Source: patent US20120244208A1, “COSMETIC SKIN CARE METHODS AND COMPOSITIONS” (priority 2009, published 2012)

Tests used:
[1] = test system: Normal human dermal fibroblasts (NHDFs) seeded on collagen type 1 gels; assay: Fibroblast-seeded collagen gel contraction; assay type: cell-based; settings: 0.1 mg/ml lactoferrin, 0.1 mg/ml ICI 118 551, 1.0 mg/ml Isoproterenol, 3.5×10^4 cells per well
Protocol: Normal human dermal fibroblasts (NHDFs) were obtained by tissue donation following circumcision following patient informed consent. The tissue was rinsed in Phosphate Buffered Saline (PBS) and Pen/Strep and Amphotericin B (Pen/strep) at 10 ug/ml. The tissue was then minced to 1 mm2 sections and suspended in Trypsin-EDTA 1:250 at room temperature (RT) for 1 hr. The tissue was then washed twice by centrifugation at 2500 g for 3min in serum supplemented DMEM/F12. A single cell suspension was created using mechanical disaggregation. The cells were counted using a haemocytometer and cultured at 1×10^6 cells per T75 tissue culture flask in DMEM/F12 containing 10% Fetal Bovine Serum (FBS) and 10 ug/ml Pen/strep. Incubators were kept at 37° C. and 5% CO2. Medium was changed every 3-4 days and cells were used from the 4th passage in vitro.
Collagen gels were formed. A solution of collagen, consisting of 2 mg/ml type 1 bovine collagen from bovine Achilles tendon in 0.5M acetic acid, was made. This made up 80% of the gel. Another 10% was made up of 10×PBS and the remaining volume was made up of FBS. The pH of the entire solution was adjusted to 7.4 using NaOH. 400 μl of the solution was placed into each well of a 24 well plate. The gels were set at 37° C. for 1 hr. After ensuring that the gels were set properly, they were detached from the sides of the wells and exposed to 1 ml fully supplemented DMEM/F12 overnight to acclimatize. The complete gels were seeded with 3.5×10^4 cells per well and the test compounds were added at this point. The test compound were added as follows: 0.1 mg/ml lactoferrin, 0.1 mg/ml ICI 118 551, 1.0 mg/ml Isoproterenol. A cell only and no cell control were also incuded.
Photographs were taken from the same distance at 0, 3, 6, 12 and 24 hrs of exposure using a Canon Powershot A640 10MP camera. The photos were transferred to CorelDRAW X3 and the inside diameter of the well as well as the outer edge of the gel were measured using the circle tool. […] These two diameters were then converted to a percentage of the well diameter by the formula geloutside/wellinside×100=gelrelative. This value was then worked out the same way for each gel at every time period. The time period Ohrs taken to be 100% of gel size and each time period after that was compared to it as a relative percentage. The standard deviation was calculated based on the original relative percentage to the well.

[2] = test system: Normal human dermal fibroblasts (NHDFs) seeded on collagen type 1 gels; assay: Fibroblast-seeded collagen gel contraction; assay type: cell-based; settings: monitored for a further 3 days

B1: Lactoferrin (protein, UniProt P02788 20-710, looked up)
Lactotransferrin: GRRRSVQWCAVSQPEATKCFQWQRNMRKVRGPPVSCIKRDSPIQCIQAIAENRADAVTLDGGFIYEAGLAPYKLRPVAAEVYGTERQPRTHYYAVAVVKKGGSFQLNELQGLKSCHTGLRRTAGWNVPIGTLRPFLNWTGPPEPIEAAVARFFSASCVPGADKGQFPNLCRLCAGTGENKCAFSSQEPYFSYSGAFKCLRDGAGDVAFIRESTVFEDLSDEAERDEYELLCPDNTRKPVDKFKDCHLARVPSHAVVARSVNGKEDAIWNLLRQAQEKFGKDKSPKFQLFGSPSGQKDLLFKDSAIGFSRVPPRIDSGLYLGSGYFTAIQNLRKSEEEVAARRARVVWCAVGEQELRKCNQWSGLSEGSVTCSSASTTEDCIALVLKGEADAMSLDGGYVYTAGKCGLVPVLAENYKSQQSSDPDPNCVDRPVEGYLAVAVVRRSDTSLTWNSVKGKKSCHTAVDRTAGWNIPMGLLFNQTGSCKFDEYFSQSCAPGSDPRSNLCALCIGDEQGENKCVPNSNERYYGYTGAFRCLAENAGDVAFVKDVTVLQNTDGNNNEAWAKDLKLADFALLCLDGKRKPVTEARSCHLAMAPNHAVVSRMDKVERLKQVLLHQQAKFGRNGSDCPDKFCLFQSETKNLLFNDNTECLARLHGKTTYEKYLGPQYVAGITNLKKCSTSPLLEACEFLRK
notes: transferrin; known collagen contractor
% of original size (mean) ([1]; 0 hrs (taken to be 100% of gel size)): 100%
% of original size (mean) ([1]; 3 hrs): 92.62%
% of original size (mean) ([1]; 6 hrs): 64.48%
% of original size (mean) ([1]; 12 hrs): 54.71%
% of original size (mean) ([1]; 24 hrs): 49.73%
return of gels to original dimensions [2]: did not return to their original dimensions
